From IntAct's records for PubMed 22817896

B1: Receptor-interacting serine/threonine-protein kinase 3 (Homo sapiens), Q9Y572 (parent)
chain: MSCVKLWPSGAPAPLVSIEELENQELVGKGGFGTVFRAQHRKWGYDVAVKIVNSKAISREVKAMASLDNEFVLRLEGVIEKVNWDQDPKPALVTKFMENGSLSGLLQSQCPRPWPLLCRLLKEVVLGMFYLHDQNPVLLHRDLKPSNVLLDPELHVKLADFGLSTFQGGSQSGTGSGEPGGTLGYLAPELFVNVNRKASTASDVYSFGILMWAVLAGREVELPTEPSLVYEAVCNRQNRPSLAELPQAGPETPGLEGLKELMQLCWSSEPKDRPSFQECLPKTDEVFQMVENNMNAAVSTVKDFLSQLRSSNRRFSIPESGQGGTEMDGFRRTIENQHSRNDVMVSEWLNKLNLEEPPSSVPKKCPSLTKRSRAQEEQVPQAWTAGTSSDSMAQPPQTPETSTFRNQMPSPTSTGTPSPGPRGNQGAERQGMNWSCRTPEPNPVTGRPLVNIYNCSGVQVGDNNYLTMQQTTALPTWGLAPSGKGRGLQHPPPVGSQEGPKDPEAWSRPQGWYNHSGK
B2: Receptor-interacting serine/threonine-protein kinase 1 (Homo sapiens), Q13546 (parent)
chain: MQPDMSLNVIKMKSSDFLESAELDSGGFGKVSLCFHRTQGLMIMKTVYKGPNCIEHNEALLEEAKMMNRLRHSRVVKLLGVIIEEGKYSLVMEYMEKGNLMHVLKAEMSTPLSVKGRIILEIIEGMCYLHGKGVIHKDLKPENILVDNDFHIKIADLGLASFKMWSKLNNEEHNELREVDGTAKKNGGTLYYMAPEHLNDVNAKPTEKSDVYSFAVVLWAIFANKEPYENAICEQQLIMCIKSGNRPDVDDITEYCPREIISLMKLCWEANPEARPTFPGIEEKFRPFYLSQLEESVEEDVKSLKKEYSNENAVVKRMQSLQLDCVAVPSSRSNSATEQPGSLHSSQGLGMGPVEESWFAPSLEHPQEENEPSLQSKLQDEANYHLYGSRMDRQTKQQPRQNVAYNREEERRRRVSHDPFAQQRPYENFQNTEGKGTAYSSAASHGNAVHQPSGLTSQPQVLYQNNGLYSSHGFGTRPLDPGTAGPRVWYRPIPSHMPSLHNIPVPETNYLGNTPTMPFSSLPPTDESIKYTIYNSTGIQIGAYNYMEIGGTSSSLLDSTNTNFKEEPAAKYQAIFDNTTSLTDKHLDPIRENLGKHWKNCARKLGFTQSQIDEIDHDYERDGLKEKVYQMLQKWVMREGIKGATVGKLAQALHQCSRIDLLSSLIYVSQN

Variants of: B1
Details: with ripk1_human RIPK1, Q13546

Effect of a mutation on the interaction, decreasing interaction strength:
S456D
D462K
V458D
Q459D
V460D
V458E;V460E
G461D
G457D

Variants of: B1
Details: with ripk1_human RIPK1, Q13546
Remark: another data set of the same source

Effect of a mutation on the interaction, decreasing interaction strength:
V458P
Q459P
V460P
G461P

Variants of: B2
Details: with ripk3_human RIPK3, Q9Y572

Effect of a mutation on the interaction, decreasing interaction strength:
N545D
I541D
Y544D
A543D
G542D
I539D
Q540D
